According to article PMC7141136, “Ohr and OhrR Are Critical for Organic Peroxide Resistance and Symbiosis in Azorhizobium caulinodans ORS571”:
Residue numbers refer to the chain shown, from its start.

What was measured:
Settings in all cases: protein: recombinant; tags: N-terminal 6xHis (pET-28a); chain copies: 2; label: none (GelRed stain)
OhrR C11S = biological target: T1, OhrR C11S (Azorhizobium caulinodans ORS571, UniProt A8IEZ4 1-144, C11S); assay: EMSA; reducing; 50 mM Tris-HCl pH 8.3, 0.25 M KCl, 2.5 mM DTT, 5 mM MgCl2, 0.05 ug/mL poly(dI-dC), 2.5 mM EDTA, 1% glycerol; 20 nM DNA, 20 uL, 20 min, room temperature; 6% native PAGE in 0.5x TBE
T1 sequence: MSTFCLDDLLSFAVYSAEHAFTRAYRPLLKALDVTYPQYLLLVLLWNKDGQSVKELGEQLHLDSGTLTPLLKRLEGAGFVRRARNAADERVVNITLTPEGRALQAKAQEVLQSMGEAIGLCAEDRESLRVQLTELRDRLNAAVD

OhrR C121S = biological target: T2, OhrR C121S (Azorhizobium caulinodans ORS571, UniProt A8IEZ4 1-144, C121S); assay: as above
T2 sequence: T1 sequence with S11C, C121S

OhrR C11S C121S = biological target: T3, OhrR C11S C121S (Azorhizobium caulinodans ORS571, UniProt A8IEZ4 1-144, C11S;C121S); assay: EMSA; CuOOH; binding not affected; 50 mM Tris-HCl pH 8.3, 0.25 M KCl, 2.5 mM DTT, 5 mM MgCl2, 0.05 ug/mL poly(dI-dC), 2.5 mM EDTA, 1% glycerol; 20 nM DNA, 20 uL, 20 min, room temperature; 6% native PAGE in 0.5x TBE
T3 sequence: T1 sequence with C121S

Measured: binding result

B1: ohr promoter probe (181 bp) (dsDNA)
DNA 1: CAAAGGGTTAGTTTTCCGTTGCGGAAGGTTGGGTGATGTTGACGGTGGTCTGCAAAATAAGTTTGACACAATCAAATTGTGTGCTACTTAAATGGCCATGGAAGCGGCTTGGCCGTTTCTCATCGATTTCTCAAGGCACGAGGATCAAGCGATGTCCGTCGATGTGAAGTACACCACCAAG
DNA 2: CTTGGTGGTGTACTTCACATCGACGGACATCGCTTGATCCTCGTGCCTTGAGAAATCGATGAGAAACGGCCAAGCCGCTTCCATGGCCATTTAAGTAGCACACAATTTGATTGTGTCAAACTTATTTTGCAGACCACCGTCAACATCACCCAACCTTCCGCAACGGAAAACTAACCCTTTG
binds: OhrR C11S | OhrR C121S | OhrR C11S C121S
